PMC10165274 (The Journal of Biological Chemistry, 2023)

How the values were obtained:
Assay in all cases: ITC; peptide (FEN1 800 uM, pol δ p66 550 uM, RNaseH2B 750 uM) with 33 to 38 uM individual PCNA (not trimeric rings); 25 °C
Conditions in all cases: both partners purified
[1] = target: T1, Proliferating cell nuclear antigen, wild type (human, UniProt P12004 1-261)
T1 construct: PCNA, human; untagged, expressed from the pET3c vector; Homotrimeric ring; also called PCNA-WT; PCNA; source: E. coli BLR-DE3, purified (S and Q HiTrap columns, Sephacryl-200 gel filtration)
T1 sequence (P12004 whole entry): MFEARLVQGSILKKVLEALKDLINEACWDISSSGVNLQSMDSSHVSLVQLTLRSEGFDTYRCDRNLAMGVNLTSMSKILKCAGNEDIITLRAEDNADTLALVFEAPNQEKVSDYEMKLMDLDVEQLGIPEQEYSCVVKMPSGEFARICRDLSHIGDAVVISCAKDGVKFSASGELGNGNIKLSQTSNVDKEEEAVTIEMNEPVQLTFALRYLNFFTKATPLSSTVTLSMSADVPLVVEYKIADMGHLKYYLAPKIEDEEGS

[2] = target: T2, Proliferating cell nuclear antigen C148S variant (human, UniProt P12004 1-261, C148S)
T2 construct: PCNA, human, patient-derived variant p.Cys148Ser; untagged, made by site-directed mutagenesis of PCNA-WT in pET3c; Disease-associated natural allele (PARD); Homotrimeric ring; also called PCNA-C148S; C148S-PCNA; source: E. coli BLR-DE3, purified (S and Q HiTrap columns, Sephacryl-200 gel filtration)
T2 sequence (P12004 whole entry C148S): as the sequence (P12004 whole entry) above, with C148S counted along it

[3] = target: T3, Proliferating cell nuclear antigen S228I variant (human, UniProt P12004 1-261, S228I)
T3 construct: PCNA, human, patient-derived variant p.Ser228Ile; expressed from the pET3c vector; Disease-associated natural allele (PARD); also called PCNA-S228I; source: E. coli BLR-DE3, purified (S and Q HiTrap columns, Sephacryl-200 gel filtration)
T3 sequence (P12004 whole entry S228I): as the sequence (P12004 whole entry) above, with S228I counted along it

| Kd [1] | Kd [2] | Kd [3] | Binder |
| --- | --- | --- | --- |
| 11 ± 2 µM | 11 ± 2 µM | – | STQGRLDDFFKVTGSL (PIP-box peptide of Flap endonuclease 1 (FEN1); free C-terminus (-OH); source: synthetic peptide (21st Century Biochemicals)) [FEN1 PIP-box peptide] |
| 9.7 ± 0.3 µM | 7.8 ± 0.01 µM | – | DKSGMKSIDTFFGVKNKKKIGKV (PIP-box peptide of RNaseH2B; free C-terminus (-OH); printed with a blank after SID; source: synthetic peptide (21st Century Biochemicals)) [RNaseH2B PIP-box peptide] |
| 3 ± 0.16 µM | 2.8 ± 0.33 µM | 4 ± 0.14 µM | KANRQVSITGFFQRK (PIP-box peptide of the p66 subunit of DNA polymerase delta; also called pol δ p66; pol δ; source: synthetic peptide (21st Century Biochemicals)) [DNA polymerase delta p66 PIP-box peptide] |
